From article PMC9181312

Target: Human ACE2-hIgG1Fc (human) (UniProt Q9BYF1)
Test: SPR

Chain of Human ACE2-hIgG1Fc (human) (Q9BYF1 18-740): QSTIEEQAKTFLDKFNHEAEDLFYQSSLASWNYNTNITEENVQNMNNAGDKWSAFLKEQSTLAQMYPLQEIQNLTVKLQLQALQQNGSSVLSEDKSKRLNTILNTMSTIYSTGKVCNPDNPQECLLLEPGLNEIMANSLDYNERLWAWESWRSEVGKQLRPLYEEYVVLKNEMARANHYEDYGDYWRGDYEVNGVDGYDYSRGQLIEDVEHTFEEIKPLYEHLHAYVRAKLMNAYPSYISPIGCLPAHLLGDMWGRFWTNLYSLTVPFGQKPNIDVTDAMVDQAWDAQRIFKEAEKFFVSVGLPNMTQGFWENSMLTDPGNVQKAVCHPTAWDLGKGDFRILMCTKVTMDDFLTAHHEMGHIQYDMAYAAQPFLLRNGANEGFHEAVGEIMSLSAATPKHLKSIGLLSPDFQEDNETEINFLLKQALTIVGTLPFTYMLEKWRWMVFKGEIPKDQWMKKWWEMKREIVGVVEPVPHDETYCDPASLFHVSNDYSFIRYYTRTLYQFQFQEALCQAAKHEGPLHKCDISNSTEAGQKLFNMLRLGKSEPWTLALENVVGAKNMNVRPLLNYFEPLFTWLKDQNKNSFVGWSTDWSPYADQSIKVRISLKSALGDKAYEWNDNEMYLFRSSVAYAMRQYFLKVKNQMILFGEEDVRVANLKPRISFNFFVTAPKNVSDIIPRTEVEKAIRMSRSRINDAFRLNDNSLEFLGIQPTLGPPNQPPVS

Wuhan RBD showed a Kd of 7.3 nM and a koff of 0.0051 s⁻¹.
